Results on one molecule are retold here after US20090148907A1, “NOVEL FRUCTOFURANOSIDASE ACTIVITY FOR OBTAINING THE PREBIOTIC OLIGOSACCHARIDE 6-KESTOSE” (CONSEJO SUPERIOR DE INVESTIGACIONES CIENTIFICAS, priority 2005, published 2009).

Format in all cases: biochemical
Data set [1] addresses T1, fructofuranosidase of S. occidentalis (pure enzyme F-3) (Schwanniomyces occidentalis, UniProt P24133).
T1 construct: the enzyme object of the invention is extracellularly released; endogenous in cells; host or cells: Schwanniomyces occidentalis culture supernatant; concentrated (F-1), then DEAE-Sephacel at pH 7 (F-2) and at pH 5 (F-3)
T1 sequence (P24133 whole entry, looked up): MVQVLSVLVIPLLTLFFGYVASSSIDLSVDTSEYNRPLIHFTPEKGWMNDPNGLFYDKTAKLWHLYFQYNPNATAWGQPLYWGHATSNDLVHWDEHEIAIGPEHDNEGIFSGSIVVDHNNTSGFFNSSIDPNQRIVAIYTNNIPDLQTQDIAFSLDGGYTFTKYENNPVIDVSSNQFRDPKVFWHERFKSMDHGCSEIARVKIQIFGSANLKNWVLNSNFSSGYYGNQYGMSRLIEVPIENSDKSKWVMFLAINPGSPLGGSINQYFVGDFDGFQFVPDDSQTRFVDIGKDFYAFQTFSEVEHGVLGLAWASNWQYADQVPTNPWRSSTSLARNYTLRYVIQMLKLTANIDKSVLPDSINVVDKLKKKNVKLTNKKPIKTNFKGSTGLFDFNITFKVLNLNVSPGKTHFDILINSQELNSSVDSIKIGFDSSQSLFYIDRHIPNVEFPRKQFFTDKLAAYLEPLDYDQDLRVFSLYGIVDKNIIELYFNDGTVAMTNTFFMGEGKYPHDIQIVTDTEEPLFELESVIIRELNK
Nature of the data set: Transfructosidase (transglycosylation) activity of pure enzyme F-3 on sucrose, HPLC. The following applies: after 144 hours at 50° C, high sucrose concentration. The procedure: The transglycosylation activity of the pure enzyme (fraction F-3) was assayed. A reaction was prepared using a high concentration of sucrose (510 g/l) and a final enzymatic activity in the reaction mixture of approximately 0.5 U/ml. […] It is seen that the profile of the obtained products is very similar in both cases, specifically the 6-kestose/1-kestose ratio that was obtained was 3.3.
After 144 hours of reaction, 42.6 g/l of FOS were obtained. The total percentage (w/w) of fructooligosaccharides was 8.4% this value being with respect to the total weight of carbohydrates in the medium.
A high concentration solution of sucrose ([…]) in 0.2 M sodium acetate buffer pH 5.6 was prepared. The fructofuranosidase was added until a final concentration in the reaction mixture of 0.5 U/ml (one unit U is the enzymatic activity corresponding to releasing a micromole of reducing sugars per minute, using 100 g/l of sucrose as substrate, in 0.2 M sodium acetate buffer pH 5.6, at 50° C.). The reaction mixture was incubated for 144 hours at 50° C., with orbital stirring at 700 rpm. Aliquots were extracted at different times, incubated for 5 minutes at 80° C. to inactivate the enzyme, diluted 1:2 (v/v) with water centrifuged for 5 minutes at 6000 rpm in an eppendorf tube with a 0.45 μm filter and analyzed by HPLC liquid chromatography. The profile of the products formed is seen in FIG. 7. Two trisaccharides were obtained: a majority trisaccharide, identified as 6-kestose, and another minority trisaccharide, identified as 1-kestose. At the final reaction time (144 h), the composition of the system was: 12.7% fructose, 14.80/glucose. 64.1% sucrose, 2.4% 1-kestose and 5.9% 6-kestose).

Data set [2] can be described thus: Fructofuranosidase activity at different pH and temperatures. The following applies: solution of pure protein, on sucrose. How it is done: The fructofuranosidase activity was assayed at different pH and temperatures. Maximum activity levels were obtained in a pH range comprised, between 5 and 6 units at 50° C. and at a temperature of 40 and 55° C.
FIG. 3 indicates the enzymatic activity in function of the pH and of the temperature, showing the corresponding maximums. The assays were performed on sucrose using a solution of pure protein. 100% corresponds to an activity of 5.59 U/ml. FIG. 3A: fructofuranosidase activity was determined at different pHs (3-9 pH units), an assay temperature of 50° C. and sodium citrate, sodium phosphate and HCl-Tris buffer (all of them 100 mM) for the pH range of 3-4.5, 5.0-7.5 and 8.0-9.0, respectively. FIG. 3B: the temperature assay (30-70° C.) was performed in 50 mM sodium phosphate pH 5.5.

Data set [3] in a line: Fructofuranosidase activity of fractions during purification. The following applies: eluted at 0.2 M of salt, DEAE-Sephacel pH 5. The procedure: The cell free fraction was obtained by centrifugation (F-0) of a culture of S. occidentalis ATCC26077 grown at 29° C. and 235 rpm. Fructofuranosidase activity was assayed in the latter, determining the glucose release on different substrates. A colorimetric assay and the standard methodology were used. The released glucose was quantified using the glucose oxidase-peroxidase coupled reaction: 0.4 ml of the solution to be determined was mixed with 0.1 ml of A:B (20:1) solution (A: 0.85 U/ml glucose oxidase, 0.40 U/ml peroxidase in sodium phosphate buffer pH 5; B: 0.6% O-dianisidine). It was incubated for 30 minutes at 37° C. and spectrophotometrically quantified at 450 nm. A standard glucose curve (0 to 100 μg/ml) was used. The fructofuranosidase activity unit is defined in μmol/ml min of glucose determined in the described conditions.
For the purification of the enzyme, 2 liters of extracellular fraction of S. occidentalis, with a fructofuranosidase activity of 0.58 U/ml, were used to begin. The following method was used:
1) Concentration of the extracellular fraction using a tangential filtration system (30 kDa fitter) followed by dialysis against 20 mM HCl-Tris pH 7 (buffer A) for 2 hours at a temperature of 4° C. […]
3) Ion exchange chromatography to pH 5. […] The fructofuranosidase activity determined as previously indicated eluted at 0.2 M of salt and was 0.33 U (F-3).

B1: F-3: purified fructofuranosidase of S. occidentalis with transfructosidase activity, SEQ. ID. NO: 1, 535 amino acids (protein, listed as Debaryomyces occidentalis)
chain: MVQVLSVLVIPLLTLFFGYVASSSIDLSVDTSEYNRPLIHFTPEKGWMNDPNGLFYDKTAKLWHLYFQYNPNATAWGQPLYWGHATSNDLVHWDEHEIAIGPEHDNEGIFSGSIVVDHNNTSGFFNSSIDPNQRIVAIYTNNIPDLQTQDIAFSLDGGYTFTKYENNPVIDVSSNQFRDPKVFWHEDSNQWIMVVLKSQEYKIQIFGSANLKNWVLNSNFSSGYYGNQYECPGLIEVPIENSDKSKWVMFLAINPGSPLGGSINQYFVGDFDGFQFVPDDSQTRFVDIGKDFYAFQTFSEVEHGVLGLAWASNWQYADQVPTNPWRSSTSLARNYTLRYVHTNAETKQLTLIQNPVLPDSINVVDKLKKKNVKLTNKKPIKTNFKGSTGLFDFNITFKVLNLNVSPGKTHFDILINSQELNSSVDSIKIGFDSSQSSFYIDRHIPNVEFPRKQFFTDKLAAYLEPLDYDQDLRVFSLYGIVDKNIIELYFNDGTVAMTNTFFMGEGKYPHDIQIVTDTEEPLFELESVIIRELNK
Regarding B1, the “Transfructosidase activity retained (in words)” value in data set [1] is “still maintains transfructosidase activity”. Further, the “Activity corresponding to 100% in FIG. 3” value in data set [2] turned out to be 5.59 U/ml. Moreover, the Fructofuranosidase activity in data set [3] was found to be 0.33 U.
